In ChEMBL document CHEMBL2073879, “Human monocarboxylate transporter 2 (MCT2) is a high affinity pyruvate transporter” (J Biol Chem, 1998):

B1: Monocarboxylate transporter 2 (Homo sapiens), O60669 (protein)
chain: MPPMPSAPPVHPPPDGGWGWIVVGAAFISIGFSYAFPKAVTVFFKEIQQIFHTTYSEIAWISSIMLAVMYAGGPVSSVLVNKYGSRPVVIAGGLLCCLGMVLASFSSSVVQLYLTMGFITGLGLAFNLQPALTIIGKYFYRKRPMANGLAMAGSPVFLSSLAPFNQYLFNTFGWKGSFLILGSLLLNACVAGSLMRPLGPNQTTSKSKNKTGKTEDDSSPKKIKTKKSTWEKVNKYLDFSLFKHRGFLIYLSGNVIMFLGFFAPIIFLAPYAKDQGIDEYSAAFLLSVMAFVDMFARPSVGLIANSKYIRPRIQYFFSFAIMFNGVCHLLCPLAQDYTSLVLYAVFFGLGFGSVSSVLFETLMDLVGAPRFSSAVGLVTIVECGPVLLGPPLAGKLVDLTGEYKYMYMSCGAIVVAASVWLLIGNAINYRLLAKERKEENARQKTRESEPLSKSKHSEDVNVKVSNAQSVTSERETNI
B2: Monocarboxylate transporter 1 (Rattus norvegicus), P53987 (protein)
chain: MPPAIGGPVGYTPPDGGWGWAVVVGAFISIGFSYAFPKSITVFFKEIEIIFSATTSEVSWISSIMLAVMYAGGPISSILVNKYGSRPVMIAGGCLSGCGLIAASFCNTVQELYFCIGVIGGLGLAFNLNPALTMIGKYFYKKRPLANGLAMAGSPVFLSTLAPLNQAFFGIFGWRGSFLILGGLLLNCCVAGSLMRPIGPQQGKVEKLKSKESLQEAGKSDANTDLIGGSPKGEKLSVFQTVNKFLDLSLFTHRGFLLYLSGNVVMFFGLFTPLVFLSNYGKSKHFSSEKSAFLLSILAFVDMVARPSMGLAANTRWIRPRVQYFFAASVVANGVCHLLAPLSTTYVGFCIYAGVFGFAFGWLSSVLFETLMDLVGPQRFSSAVGLVTIVECCPVLLGPPLLGRLNDMYGDYKYTYWACGVILIIAGLYLFIGMGINYRLVAKEQKAEEKKRDGKEDETSTDVDEKPKKTMKETQSPAPLQNSSGDPAEEESPV

Tests used:
[1] = substrate: CC(=O)C(=O)O; experiment: (§1) TP_TRANSPORTER: uptake in Xenopus laevis oocytes; format: functional, cell-based; conditions: Oocyte
[2] = substrate: CC(O)C(=O)[O-].[Na+]; experiment: as §1; format: functional, cell-based; conditions: Oocyte

Protein	Km [1] [mM]	Km [2] [mM]
B1	0.025	6.5
B2	2.5	6
